The chains are these.
B1: LINE1-mini (parent)
chain: GGCAGAGCUCAACACAGCGUGGCAAAGUGGCUGUGGCUAGACUGCC

Self-cleavage data for 167 variants are collected here from the RNAGym collection of RNA variant scans (doi:10.7554/elife.90254).

In the data set the parent is B1. The data set is described as follows: self-cleavage, relative activity (ratio to wild type); higher = more cleavage; in vitro, sequencing; the parent is a self-cleaving ribozyme.
Consider C8G A25U, for which the self-cleavage worked out at 0.26.

Regarding U9A A25G, the self-cleavage was determined as 0.17.

Turning to U9A A25C, the self-cleavage was 0.07.

In the case of U9A A25U, the self-cleavage turned out to be 0.15.

C8U C46A: the self-cleavage stood at 0.33.

As for C8U C46U, the self-cleavage is 0.56.

Regarding C8U C46G, the self-cleavage came to 0.2.

Regarding U9A A11C, the self-cleavage was found to be 0.02.

As for U9A A11U, the self-cleavage came to 0.03.

On to U9A A11G, for which the self-cleavage worked out at 0.03.

Consider C8U G33A, for which the self-cleavage amounted to 0.15.

As to C8U G33U, the self-cleavage is 0.16.

For C8U G33C, the self-cleavage amounted to 0.07.

For U9A C18G, the self-cleavage was determined as 0.09.

Regarding U9A C18U, the self-cleavage was 0.11.

Turning to U9A C18A, the self-cleavage is 0.1.

For the variant U9A C13A, the self-cleavage stood at 0.2.

For U9A C13U, the self-cleavage was found to be 0.29.

As for U9A C13G, the self-cleavage is 0.23.

Take C8U C13G: the self-cleavage is 0.29.

Take C8U C13U: the self-cleavage came to 0.81.

For C8U C13A, the self-cleavage was 0.5.

On to U9A A26G, for which the self-cleavage stood at 0.09.

As for U9A A26C, the self-cleavage is 0.23.

With U9A A26U, the self-cleavage came to 0.21.

With C8G A16G, the self-cleavage is 0.11.

Take C8G A16C: the self-cleavage is 0.11.

Take C8G A16U: the self-cleavage stood at 0.06.

As for C8A G35A, the self-cleavage came to 0.42.

For C8A G35U, the self-cleavage was 0.44.

As for C8A G35C, the self-cleavage turned out to be 0.16.

Take C8A U28G: the self-cleavage was determined as 0.08.

As for C8A U28C, the self-cleavage was 0.25.

For the variant C8A U28A, the self-cleavage was 0.17.

On to C8U C42G, for which the self-cleavage was 0.13.

Turning to C8U C42U, the self-cleavage amounted to 0.17.

On to C8U C42A, for which the self-cleavage turned out to be 0.11.

For the variant U9A C37U, the self-cleavage worked out at 0.12.

Consider U9A C37G, for which the self-cleavage came out at 0.11.

Turning to U9A C37A, the self-cleavage came out at 0.21.

As for C8G C42U, the self-cleavage was 0.09.

Regarding C8G C42A, the self-cleavage was determined as 0.05.

For the variant C8G C42G, the self-cleavage was determined as 0.06.

For the variant C8G A41U, the self-cleavage is 0.25.

Take C8G A41G: the self-cleavage was 0.13.

Turning to C8G A41C, the self-cleavage was 0.14.

In the case of C8G G21A, the self-cleavage came to 0.32.

On to C8G G21U, for which the self-cleavage came to 0.13.

On to C8G G21C, for which the self-cleavage turned out to be 0.06.

Take C8G A24C: the self-cleavage came to 0.09.

Take C8G A24U: the self-cleavage stood at 0.3.

For C8G A24G, the self-cleavage was 0.15.

Take U9A G17C: the self-cleavage came to 0.06.

For U9A G17A, the self-cleavage is 0.07.

Turning to C8U U38G, the self-cleavage came to 0.04.

On to C8U U38C, for which the self-cleavage turned out to be 0.22.

As for C8U U38A, the self-cleavage turned out to be 0.27.

With C8G C31A, the self-cleavage was 0.06.

Consider C8G C31G, for which the self-cleavage is 0.05.

With C8G C31U, the self-cleavage was found to be 0.11.

U9A A14U: the self-cleavage is 0.11.

Regarding U9A A14C, the self-cleavage worked out at 0.04.

Regarding U9A A14G, the self-cleavage turned out to be 0.17.

Consider U9A C42U, for which the self-cleavage came out at 0.15.

Consider U9A C42G, for which the self-cleavage came to 0.13.

As for U9A C42A, the self-cleavage is 0.06.

Regarding U9A A41C, the self-cleavage came to 0.08.

For the variant U9A A41G, the self-cleavage stood at 0.05.

Regarding U9A A41U, the self-cleavage was 0.28.

Regarding C8G U20C, the self-cleavage came out at 0.08.

For the variant C8G U20G, the self-cleavage was determined as 0.09.

With C8G U20A, the self-cleavage came to 0.08.

C8U G40C: the self-cleavage is 0.13.

With C8U G40U, the self-cleavage is 0.29.

C8U G40A: the self-cleavage turned out to be 0.41.

For C8G A26G, the self-cleavage was found to be 0.07.

For C8G A26C, the self-cleavage turned out to be 0.14.

For C8G A26U, the self-cleavage came to 0.11.

Regarding C8G C37G, the self-cleavage came out at 0.09.

For the variant C8G C37A, the self-cleavage is 0.04.

Consider C8G C37U, for which the self-cleavage turned out to be 0.05.

In the case of C8A U34A, the self-cleavage was determined as 0.25.

Turning to C8A U34G, the self-cleavage amounted to 0.34.

Take C8A U34C: the self-cleavage amounted to 0.26.

Consider C8A G40U, for which the self-cleavage was determined as 0.34.

Regarding C8A G40A, the self-cleavage was 0.27.

On to C8A G40C, for which the self-cleavage was determined as 0.22.

With C8U G29U, the self-cleavage was determined as 0.46.

In the case of C8U G29A, the self-cleavage was determined as 0.21.

In the case of C8U G29C, the self-cleavage was found to be 0.1.

In the case of C8U U28G, the self-cleavage was 0.13.

With C8U U28C, the self-cleavage is 0.2.

For C8U U28A, the self-cleavage was found to be 0.19.

For C8U A41G, the self-cleavage worked out at 0.2.

As for C8U A41U, the self-cleavage is 0.47.

Regarding C8U A41C, the self-cleavage is 0.16.

Turning to C8U, the self-cleavage amounted to 0.29.

For the variant C8G, the self-cleavage was 0.13.

Turning to C8U G44U, the self-cleavage was determined as 0.35.

With C8U G44C, the self-cleavage was 0.08.

For the variant C8U G44A, the self-cleavage came to 0.39.

Take C8G A11G: the self-cleavage stood at 0.03.

As for C8G A11C, the self-cleavage turned out to be 0.02.

Consider C8G A11U, for which the self-cleavage stood at 0.03.

As for U9A C15U, the self-cleavage was determined as 0.17.

As to U9A C15G, the self-cleavage worked out at 0.25.

As to U9A C15A, the self-cleavage was 0.13.

Consider C8U G21C, for which the self-cleavage was found to be 0.25.

Regarding C8U G21A, the self-cleavage was 0.39.

For C8U G21U, the self-cleavage was determined as 0.25.

For the variant U9A C31G, the self-cleavage was 0.07.

Regarding U9A C31U, the self-cleavage was found to be 0.04.

Take U9A C31A: the self-cleavage is 0.07.

Consider C8A U32G, for which the self-cleavage came to 0.45.

Consider C8A U32A, for which the self-cleavage was 0.16.

Regarding C8A U32C, the self-cleavage is 0.23.

With C8A U38C, the self-cleavage worked out at 0.2.

Consider C8A U38G, for which the self-cleavage worked out at 0.07.

With C8A U38A, the self-cleavage was 0.26.

For C8U A39U, the self-cleavage came to 0.09.

For the variant C8U A39C, the self-cleavage stood at 0.2.

In the case of C8U A39G, the self-cleavage came to 0.05.

On to U9A A12G, for which the self-cleavage was 0.05.

Consider U9A A12U, for which the self-cleavage is 0.13.

Regarding U9A A12C, the self-cleavage is 0.03.

For the variant U9A C45G, the self-cleavage turned out to be 0.32.

U9A C45A: the self-cleavage was 0.31.

As to U9A C45U, the self-cleavage is 0.28.

C8G G40U: the self-cleavage was determined as 0.09.

Turning to C8G G40A, the self-cleavage worked out at 0.13.

As for C8G G40C, the self-cleavage amounted to 0.09.

As to C8G G33C, the self-cleavage was found to be 0.04.

With C8G G33U, the self-cleavage turned out to be 0.03.

Take C8G G33A: the self-cleavage stood at 0.12.

On to C8A G33C, for which the self-cleavage was determined as 0.28.

In the case of C8A G33U, the self-cleavage came to 0.18.

As for C8A G33A, the self-cleavage was determined as 0.16.

Take C8G C45G: the self-cleavage stood at 0.08.

For C8G C45U, the self-cleavage is 0.06.

With C8G C45A, the self-cleavage was 0.08.

For the variant C8A U9G, the self-cleavage came out at 0.03.

In the case of C8A U9A, the self-cleavage was determined as 0.24.

Turning to C8A U9C, the self-cleavage is 0.14.

Consider C8G U32G, for which the self-cleavage was 0.06.

In the case of C8G U32A, the self-cleavage stood at 0.04.

On to C8G U32C, for which the self-cleavage came to 0.06.

Take C8U C45G: the self-cleavage was determined as 0.46.

With C8U C45A, the self-cleavage was 0.21.

Regarding C8U C45U, the self-cleavage turned out to be 0.32.

Turning to C8U C15G, the self-cleavage is 0.09.

As for C8U C15A, the self-cleavage was 0.11.

C8U C15U: the self-cleavage stood at 0.25.

Turning to C8G G29C, the self-cleavage amounted to 0.04.

For the variant C8G G29U, the self-cleavage came to 0.11.

In the case of C8G G29A, the self-cleavage amounted to 0.06.

C8U G35C: the self-cleavage was 0.09.

For the variant C8U G35A, the self-cleavage was found to be 0.32.

Consider C8U G35U, for which the self-cleavage came out at 0.42.

Consider C8G C46U, for which the self-cleavage came out at 0.09.

Take C8G C46G: the self-cleavage was 0.11.

For the variant C8G C46A, the self-cleavage was 0.05.

For the variant C8U C37U, the self-cleavage came to 0.2.

With C8U C37G, the self-cleavage was determined as 0.07.

With C8U C37A, the self-cleavage is 0.14.

For the variant C8U A11C, the self-cleavage was found to be 0.07.

For the variant C8U A11G, the self-cleavage was found to be 0.03.

For the variant C8U A11U, the self-cleavage is 0.03.
